Results as given in article PMC6433461.

Biological target: ParB2^S68C-AlexaFluor488 (B. subtilis) (UniProt P26497)

- percentage of single DNA molecules condensed by 250 nM ParB^AF alone at permissive forces, Mg2+ buffer, combined lateral MT-TIRF: 83%
B1: ParB2^S68C-AlexaFluor488 (natural protein)
chain: MAKGLGKGINALFNQVDLSEETVEEIKIADLRPNPYQPRKHFDDEALAELKESVLQHGILQPLIVRKCLKGYDIVAGERRFRAAKLAGLDTVPAIVRELSEALMREIALLENLQREDLSPLEEAQAYDSLLKHLDLTQEQLAKRLGKSRPHIANHLRLLTLPENIQQLIAEGTLSMGHGRTLLGLKNKNKLEPLVQKVIAEQLNVRQLEQLIQQLNQNVPRETKKKEPVKDAVLKERESYLQNYFGTTVNIKRQKKKGKIEIEFFSNEDLDRILELLSERES
modifications: Alexa Fluor 488 C5 maleimide coupled to the cysteine of S68C; approximate efficiency of 2 dyes per ParB monomer as printed
